Results from patent US20200030425.
Where two headings read alike, the source gives them in different places.

What was measured:
hCD16a-F158 (human) [1] = biological target: hCD16a-F158 (human) (UniProt P08637)
hCD32a-H131 (human) [2] = biological target: hCD32a-H131 (human) (UniProt P12318)
hCD32a-H131 (human) [3] = biological target: hCD32a-H131 (human) (UniProt P12318); remark: listed apart in the source
hCD16a-F158 (human) [4] = biological target: hCD16a-F158 (human) (UniProt P08637); remark: listed apart in the source

hCD32a-H131 (human), sequence (P12318 34-217): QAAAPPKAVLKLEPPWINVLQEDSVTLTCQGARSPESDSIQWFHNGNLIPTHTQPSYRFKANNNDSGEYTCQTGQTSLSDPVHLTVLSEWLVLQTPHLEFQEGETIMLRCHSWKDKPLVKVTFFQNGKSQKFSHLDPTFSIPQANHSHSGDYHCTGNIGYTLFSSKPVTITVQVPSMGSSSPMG
hCD16a-F158 (human), sequence (P08637 17-208): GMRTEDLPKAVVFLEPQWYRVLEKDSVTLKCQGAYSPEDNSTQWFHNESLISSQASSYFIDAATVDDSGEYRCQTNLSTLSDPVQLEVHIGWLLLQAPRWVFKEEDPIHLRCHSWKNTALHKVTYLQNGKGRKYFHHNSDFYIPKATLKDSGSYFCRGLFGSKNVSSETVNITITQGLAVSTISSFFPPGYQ

Kd (hCD16a-F158 (human) [1]) [µM]	Kd (hCD32a-H131 (human) [2]) [µM]	Kd (hCD32a-H131 (human) [3]) [µM]	Kd (hCD16a-F158 (human) [4]) [µM]	Substance
200	530			IgG1f
		650	> 5000	IgG1f-S267E
